Reference: paper PMC6508825, “Rice plants have three homologs of glutathione synthetase genes, one of which, OsGS2, codes for hydroxymethyl‐glutathione synthetase” (Plant Direct, 2019)

Key:
Conditions in all cases: 1 mmol/L gamma-glutamylcysteine, 2 mmol/L ATP, 20 mmol/L MgCl2, 50 mmol/L KCl, 1 mmol/L DTT, Tris-HCl pH 8.0, 30 °C, apparent, 0.2-10 mmol/L amino acid
[1] = substrate: NCC(=O)O; experiment: HPLC with fluorescence detection of monobromobimane-derivatized thiol peptide product, Michaelis-Menten fit; assay type: biochemical, Oryza sativa
Source text: HPLC with fluorescence detection of monobromobimane-derivatized thiol peptide product, Michaelis-Menten fit on MBP-OsGS1

[2] = substrate: N[C@@H](CO)C(=O)O; experiment: purified protein
[3] = substrate: NCC(=O)O; experiment: HPLC with fluorescence detection of monobromobimane-derivatized thiol peptide product, Michaelis-Menten fit; assay type: biochemical, Oryza sativa; remark: listed apart in the source
Source text: HPLC with fluorescence detection of monobromobimane-derivatized thiol peptide product, Michaelis-Menten fit on MBP-OsGS2

[4] = substrate: NCC(=O)O; experiment: as above; assay type: biochemical, Oryza sativa; remark: listed apart in the source
Source text: HPLC with fluorescence detection of monobromobimane-derivatized thiol peptide product, Michaelis-Menten fit on MBP-OsGS3

B1: MBP-OsGS1 (Oryza sativa Japonica Group) (protein)
chain: MSSYVTTPHHHHHHGCCSGSRRLQAPAPPARPRLVVAAAARHVALPPRRAVASRAMSAEAPLGVAPAAAEEEMAAVVDEMAEEAAVWCAVHGLVVGDRAEPRSGTIPGVGLVHAPFALLPTRFPASFWKQARELAPIFNDLVDRVSLDGEFLQDSLSRTRQVDDFTSRLLDIHAKMMEVNKEEDIRLGLHRSDYMLDSGTNSLLQIELNTISSSFPGLSSLVSELHRTLLNRHGKVLGLDSKRIPQNWAATQFAEALSMAWTEFNNKSAVIMMVVQPEERNMYDQYWLINHLKESHGVKTIRKTLAQVEAEGQVLPDGTLVVDGQTVSVVYFRAGYSPNDYPSEAEWRARLLMEQSSAIKCPSISYHLVGTKKIQQELAKPNILERFLNNKEDIAKLRKCFAGLWSLDNEEIVKTAIEKPDLFVLKPQREGGGNNIYGYDLRETLVRLQKEQGEALAAYILMQRIFPRASLTHLVQGGVCFEDLTISELGIFGAYLRNKDKVVLNNQCGYLMRTKVSSSNEGGVAAGFAVLDSILLTDEW
notes: full-length ORF, MBP fusion (pMAL-c5X), expressed in E. coli NEB Express, amylose resin purified; MBP kept
Km [1]: 1280 ± 100 µM
Vmax [1]: 0.759 µmol/min/mg

B2: MBP-OsGS2 (Oryza sativa Japonica Group) (protein)
chain: MAAAAARSGAHPPSFASSLGRCRVLPVVVVRRPGGAARPSPLLAPARCAAAVGTAAPKVEGGGRRSSEQGQLAVAPARLVDELVEEALVWSSQHGLVVGDKNHPRSGKAPGVGLLHAPFALLPMSFSKVYWDQAVELAPLFNELVDRVSLDGDFLQETLARTKEVDSFTGRLLDIHAKMMKLNKKEDVRLGLTRSDYMIDGATDQLLQVELNTISTSSNGLACGVCELHRNLIRQHERELGLDPESVVGNTAIAQHAEALAGAWAEFNNQSSVVLVVVQPEERYMYDQYWITVALREMYGVTTIRKTMAAIDAEGELRPDGTLTIDGLPVAVVYFRAGYTPNDYPSEAEWRARLLIECSSAIKCPSIAHHLVGTKKIQQELAKENVLERFLDNKADIEKVRKCFAGLWSLENDSIVMSAIESPELFVLKPQREGGGNNIYGDNLRETLISLKKDGSNELAAYILMQRIFPPASLCYLVRDGTCIRENAVSEFGIFGAYLRNKDRVIINDQCGYLMRTKAASLNEGGVVAGYAFLNSVFLT
notes: as for B1
Km [2]: 2640 ± 50 µM
Vmax [2]: 0.524 µmol/min/mg
Km [3]: 19300 ± 1100 µM
Vmax [3]: 0.459 µmol/min/mg

B3: MBP-OsGS3 (Oryza sativa Japonica Group) (protein)
chain: MSAAAEGRPPAAAAAGEMVREATAWCALHGLVVGDRADPRSGTVPGVGLVHAPFSLLPTHLPESHWRQACELAPIFNELVDRVSLDGDFLQDSLSKTKQVDDFTSRLLEIHRKMMEINKEENIRLGLHRSDYMLDSETNSLLQIELNTISASFPGLGSLVSELHRTLIDQYGHLFCLDSKRVPGNEASSQFAKALARAWDEFNVDSAVIMMIVQPEERNMYDQYWLAKHLKESHGITTIRKTLSEVEAEGHVLPDGTLVIDGKTVSVVYFRAGYTPNDYPSEAEWAARLLLEQSSAVKCPSISYHLVGTKKIQQELARPNVLERFLENKEEITKIRKCFAGLWSLDDEEIVKSAIQKPELFVLKPQREGGGNNIYGIDVRETLIRLQKEGGDALAAYILMQRIFPKASLSNLVRGGVCHEALTISELGIYGAYLRNNDKVVMNEQSGYLMRTKVSSSDEGGVAAGFAVLDSLYLTDKAM
notes: MBP kept
Km [4]: 408 ± 5 µM
Vmax [4]: 6.6 µmol/min/mg
